Tests used:
38C13 IgM [1] = experiment: antibody microarray on FAST slide, purified 38C13 IgM, detection with goat anti-mouse IgM HRP, chemiluminescence
38C13 IgM [2] = experiment: antibody microarray on FAST slide, 38C13 cell extract at 1:2000 dilution, detection with goat anti-mouse IgM HRP, chemiluminescence

lowest IgM concentration giving signal (38C13 IgM [1]): 0.1 µg/mL | lowest spotted S1C5 concentration giving signal (38C13 IgM [1]): 25 µg/mL | lowest printed S1C5 concentration giving signal (38C13 IgM [2]): 50 µg/mL
Substance: S1C5 anti-idiotype monoclonal antibody

Reference: patent US20040048311A1
